According to the supplement of paper PMC9112550, “Optimization of the antimicrobial peptide Bac7 by deep mutational scanning” (BMC Biology, 2022):

Tested on: Escherichia coli TOP10
Experiment: shrunken log2 fold change of peptide-encoding DNA abundance (4.5 h post-induction vs induction); higher = less antimicrobial activity (less host growth inhibition)
Settings: time post-induction: 4.5 h; library: site-saturation at positions 5, 18, 19, 20
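Further: peptides expressed intracellularly from a pBAD plasmid library in pooled LB shake-flask culture, induced with 0.3% L-arabinose, DNA abundance read by NGS, three biological replicates, DESeq2 with apeglm shrinkage.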

RRIRHRPPRLPRPRPRPHNSPRP
shrunken log2 fold change: -0.692

RRIRHRPPRLPRPRPRPHQGPRP
shrunken log2 fold change: -0.00197

RRIRHRPPRLPRPRPRPHQIPRP
shrunken log2 fold change: 0.0658

RRIRHRPPRLPRPRPRPHRMPRP
shrunken log2 fold change: -0.46

RRIRHRPPRLPRPRPRPHSWPRP
shrunken log2 fold change: -0.0723

RRIRHRPPRLPRPRPRPHVEPRP
shrunken log2 fold change: -0.0794

RRIRHRPPRLPRPRPRPHWDPRP
shrunken log2 fold change: -0.557

RRIRHRPPRLPRPRPRPHWKPRP
shrunken log2 fold change: -0.337

RRIRHRPPRLPRPRPRPIAEPRP
shrunken log2 fold change: -0.103

RRIRHRPPRLPRPRPRPIAMPRP
shrunken log2 fold change: -0.119

RRIRHRPPRLPRPRPRPIFGPRP
shrunken log2 fold change: -0.0177

RRIRHRPPRLPRPRPRPIFYPRP
shrunken log2 fold change: -0.204

RRIRHRPPRLPRPRPRPIHIPRP
shrunken log2 fold change: -0.733

RRIRHRPPRLPRPRPRPIKHPRP
shrunken log2 fold change: -0.341

RRIRHRPPRLPRPRPRPILDPRP
shrunken log2 fold change: 0.0523

RRIRHRPPRLPRPRPRPILEPRP
shrunken log2 fold change: 0.077

RRIRHRPPRLPRPRPRPILGPRP
shrunken log2 fold change: -0.0179

RRIRHRPPRLPRPRPRPILLPRP
shrunken log2 fold change: -0.211

RRIRHRPPRLPRPRPRPILVPRP
shrunken log2 fold change: -0.148

RRIRHRPPRLPRPRPRPIMMPRP
shrunken log2 fold change: 0.013

RRIRHRPPRLPRPRPRPINMPRP
shrunken log2 fold change: -0.244

RRIRHRPPRLPRPRPRPISDPRP
shrunken log2 fold change: -0.179

RRIRHRPPRLPRPRPRPIYKPRP
shrunken log2 fold change: -0.393

RRIRHRPPRLPRPRPRPKATPRP
shrunken log2 fold change: 0.00379

RRIRHRPPRLPRPRPRPKCLPRP
shrunken log2 fold change: -0.25

RRIRHRPPRLPRPRPRPKCYPRP
shrunken log2 fold change: -0.0358

RRIRHRPPRLPRPRPRPKDWPRP
shrunken log2 fold change: 0.207

RRIRHRPPRLPRPRPRPKHDPRP
shrunken log2 fold change: -0.363

RRIRHRPPRLPRPRPRPKKGPRP
shrunken log2 fold change: -0.0679

RRIRHRPPRLPRPRPRPKKWPRP
shrunken log2 fold change: -0.0201

RRIRHRPPRLPRPRPRPKLAPRP
shrunken log2 fold change: -0.0576

RRIRHRPPRLPRPRPRPKNIPRP
shrunken log2 fold change: -0.477

RRIRHRPPRLPRPRPRPKPGPRP
shrunken log2 fold change: 0.21

RRIRHRPPRLPRPRPRPKQEPRP
shrunken log2 fold change: 0.0169

RRIRHRPPRLPRPRPRPKRDPRP
shrunken log2 fold change: 0.158

RRIRHRPPRLPRPRPRPKRQPRP
shrunken log2 fold change: -0.0409

RRIRHRPPRLPRPRPRPKRTPRP
shrunken log2 fold change: 0.00166

RRIRHRPPRLPRPRPRPKSSPRP
shrunken log2 fold change: -0.0395

RRIRHRPPRLPRPRPRPKTAPRP
shrunken log2 fold change: 0.0497

RRIRHRPPRLPRPRPRPKTPPRP
shrunken log2 fold change: 0.155

RRIRHRPPRLPRPRPRPKWAPRP
shrunken log2 fold change: 0.279

RRIRHRPPRLPRPRPRPKYEPRP
shrunken log2 fold change: -0.255

RRIRHRPPRLPRPRPRPKYIPRP
shrunken log2 fold change: -0.796

RRIRHRPPRLPRPRPRPKYWPRP
shrunken log2 fold change: -0.2

RRIRHRPPRLPRPRPRPLARPRP
shrunken log2 fold change: 0.113

RRIRHRPPRLPRPRPRPLATPRP
shrunken log2 fold change: -0.0931

RRIRHRPPRLPRPRPRPLCFPRP
shrunken log2 fold change: -0.243

RRIRHRPPRLPRPRPRPLDDPRP
shrunken log2 fold change: -0.172

RRIRHRPPRLPRPRPRPLGAPRP
shrunken log2 fold change: -0.0242

RRIRHRPPRLPRPRPRPLGFPRP
shrunken log2 fold change: 0.114

RRIRHRPPRLPRPRPRPLHQPRP
shrunken log2 fold change: -0.00684

RRIRHRPPRLPRPRPRPLHWPRP
shrunken log2 fold change: 0.0266

RRIRHRPPRLPRPRPRPLHYPRP
shrunken log2 fold change: -0.284

RRIRHRPPRLPRPRPRPLLWPRP
shrunken log2 fold change: 0.0832

RRIRHRPPRLPRPRPRPLMIPRP
shrunken log2 fold change: -0.498

RRIRHRPPRLPRPRPRPLMSPRP
shrunken log2 fold change: -0.196

RRIRHRPPRLPRPRPRPLMVPRP
shrunken log2 fold change: -0.474

RRIRHRPPRLPRPRPRPLPDPRP
shrunken log2 fold change: -0.299

RRIRHRPPRLPRPRPRPLPPPRP
shrunken log2 fold change: 0.196

RRIRHRPPRLPRPRPRPLREPRP
shrunken log2 fold change: 0.819

RRIRHRPPRLPRPRPRPLRQPRP
shrunken log2 fold change: -0.0125

RRIRHRPPRLPRPRPRPLSLPRP
shrunken log2 fold change: -0.492

RRIRHRPPRLPRPRPRPLSVPRP
shrunken log2 fold change: -0.136

RRIRHRPPRLPRPRPRPLTFPRP
shrunken log2 fold change: 0.01

RRIRHRPPRLPRPRPRPLTLPRP
shrunken log2 fold change: -0.193

RRIRHRPPRLPRPRPRPLVEPRP
shrunken log2 fold change: -0.0289

RRIRHRPPRLPRPRPRPLYFPRP
shrunken log2 fold change: -0.816

RRIRHRPPRLPRPRPRPMAHPRP
shrunken log2 fold change: 0.0179

RRIRHRPPRLPRPRPRPMAKPRP
shrunken log2 fold change: -0.124

RRIRHRPPRLPRPRPRPMFEPRP
shrunken log2 fold change: -0.239

RRIRHRPPRLPRPRPRPMFNPRP
shrunken log2 fold change: -0.608

RRIRHRPPRLPRPRPRPMGNPRP
shrunken log2 fold change: -0.0499

RRIRHRPPRLPRPRPRPMHGPRP
shrunken log2 fold change: -0.00804

RRIRHRPPRLPRPRPRPMIEPRP
shrunken log2 fold change: 0.0253

RRIRHRPPRLPRPRPRPMINPRP
shrunken log2 fold change: -0.305

RRIRHRPPRLPRPRPRPMIVPRP
shrunken log2 fold change: 0.0837

RRIRHRPPRLPRPRPRPMKLPRP
shrunken log2 fold change: -0.254

RRIRHRPPRLPRPRPRPMLNPRP
shrunken log2 fold change: -0.114

RRIRHRPPRLPRPRPRPMLQPRP
shrunken log2 fold change: -0.0377

RRIRHRPPRLPRPRPRPMNAPRP
shrunken log2 fold change: -0.282

RRIRHRPPRLPRPRPRPMNGPRP
shrunken log2 fold change: -0.287

RRIRHRPPRLPRPRPRPMQNPRP
shrunken log2 fold change: -0.0144

RRIRHRPPRLPRPRPRPMQYPRP
shrunken log2 fold change: -0.104

RRIRHRPPRLPRPRPRPMRFPRP
shrunken log2 fold change: -0.00752

RRIRHRPPRLPRPRPRPMSHPRP
shrunken log2 fold change: -0.0479

RRIRHRPPRLPRPRPRPMTLPRP
shrunken log2 fold change: -0.0135

RRIRHRPPRLPRPRPRPMTSPRP
shrunken log2 fold change: -0.491

RRIRHRPPRLPRPRPRPMTTPRP
shrunken log2 fold change: -0.125

RRIRHRPPRLPRPRPRPMVVPRP
shrunken log2 fold change: 0.00198

RRIRHRPPRLPRPRPRPMWTPRP
shrunken log2 fold change: -0.126

RRIRHRPPRLPRPRPRPMYPPRP
shrunken log2 fold change: -0.304

RRIRHRPPRLPRPRPRPNADPRP
shrunken log2 fold change: 0.031

RRIRHRPPRLPRPRPRPNDAPRP
shrunken log2 fold change: -0.2

RRIRHRPPRLPRPRPRPNFAPRP
shrunken log2 fold change: 0.303

RRIRHRPPRLPRPRPRPNFVPRP
shrunken log2 fold change: -0.0788

RRIRHRPPRLPRPRPRPNGGPRP
shrunken log2 fold change: -0.147

RRIRHRPPRLPRPRPRPNIWPRP
shrunken log2 fold change: 0.0229

RRIRHRPPRLPRPRPRPNKKPRP
shrunken log2 fold change: -0.0825

RRIRHRPPRLPRPRPRPNLGPRP
shrunken log2 fold change: -0.00355

RRIRHRPPRLPRPRPRPNMKPRP
shrunken log2 fold change: -0.855

RRIRHRPPRLPRPRPRPNPFPRP
shrunken log2 fold change: -0.67

RRIRHRPPRLPRPRPRPNSEPRP
shrunken log2 fold change: -0.795

RRIRHRPPRLPRPRPRPNSKPRP
shrunken log2 fold change: -0.737

RRIRHRPPRLPRPRPRPNTKPRP
shrunken log2 fold change: -0.0741

RRIRHRPPRLPRPRPRPNVTPRP
shrunken log2 fold change: -0.0118

RRIRHRPPRLPRPRPRPNYRPRP
shrunken log2 fold change: -0.103

RRIRHRPPRLPRPRPRPPARPRP
shrunken log2 fold change: 1.66

RRIRHRPPRLPRPRPRPPCHPRP
shrunken log2 fold change: -0.253

RRIRHRPPRLPRPRPRPPCIPRP
shrunken log2 fold change: 0.00475

RRIRHRPPRLPRPRPRPPDTPRP
shrunken log2 fold change: -0.071

RRIRHRPPRLPRPRPRPPEYPRP
shrunken log2 fold change: 0.0328

RRIRHRPPRLPRPRPRPPGMPRP
shrunken log2 fold change: 0.0769

RRIRHRPPRLPRPRPRPPGQPRP
shrunken log2 fold change: 0.0303

RRIRHRPPRLPRPRPRPPHVPRP
shrunken log2 fold change: 0.16

RRIRHRPPRLPRPRPRPPIPPRP
shrunken log2 fold change: -0.11

RRIRHRPPRLPRPRPRPPKIPRP
shrunken log2 fold change: 0.282

RRIRHRPPRLPRPRPRPPLQPRP
shrunken log2 fold change: -0.127

RRIRHRPPRLPRPRPRPPMKPRP
shrunken log2 fold change: -0.278

RRIRHRPPRLPRPRPRPPMMPRP
shrunken log2 fold change: 0.03

RRIRHRPPRLPRPRPRPPQSPRP
shrunken log2 fold change: 0.193

RRIRHRPPRLPRPRPRPPSSPRP
shrunken log2 fold change: -0.00863

RRIRHRPPRLPRPRPRPPWCPRP
shrunken log2 fold change: 0.0341

RRIRHRPPRLPRPRPRPPWVPRP
shrunken log2 fold change: -0.101

RRIRHRPPRLPRPRPRPPYYPRP
shrunken log2 fold change: -0.296

RRIRHRPPRLPRPRPRPQACPRP
shrunken log2 fold change: -0.208

RRIRHRPPRLPRPRPRPQAEPRP
shrunken log2 fold change: -0.0254

RRIRHRPPRLPRPRPRPQCIPRP
shrunken log2 fold change: -0.235

RRIRHRPPRLPRPRPRPQDQPRP
shrunken log2 fold change: 0.0969

RRIRHRPPRLPRPRPRPQDYPRP
shrunken log2 fold change: -0.101

RRIRHRPPRLPRPRPRPQEYPRP
shrunken log2 fold change: -0.128

RRIRHRPPRLPRPRPRPQFWPRP
shrunken log2 fold change: 0.115

RRIRHRPPRLPRPRPRPQGEPRP
shrunken log2 fold change: -0.171

RRIRHRPPRLPRPRPRPQHHPRP
shrunken log2 fold change: -0.87

RRIRHRPPRLPRPRPRPQHNPRP
shrunken log2 fold change: 0.22

RRIRHRPPRLPRPRPRPQKFPRP
shrunken log2 fold change: -0.0301

RRIRHRPPRLPRPRPRPQLGPRP
shrunken log2 fold change: 0.375

RRIRHRPPRLPRPRPRPQMYPRP
shrunken log2 fold change: -0.0219

RRIRHRPPRLPRPRPRPQNMPRP
shrunken log2 fold change: -0.731

RRIRHRPPRLPRPRPRPQNYPRP
shrunken log2 fold change: -1.11

RRIRHRPPRLPRPRPRPQPQPRP
shrunken log2 fold change: -0.00539

RRIRHRPPRLPRPRPRPQPTPRP
shrunken log2 fold change: -0.18

RRIRHRPPRLPRPRPRPQQAPRP
shrunken log2 fold change: -0.00588

RRIRHRPPRLPRPRPRPQRSPRP
shrunken log2 fold change: 0.0449

RRIRHRPPRLPRPRPRPQTEPRP
shrunken log2 fold change: -0.102

RRIRHRPPRLPRPRPRPQVLPRP
shrunken log2 fold change: -0.0535

RRIRHRPPRLPRPRPRPQWNPRP
shrunken log2 fold change: -0.281

RRIRHRPPRLPRPRPRPQYCPRP
shrunken log2 fold change: -0.00186

RRIRHRPPRLPRPRPRPQYRPRP
shrunken log2 fold change: -0.0967

RRIRHRPPRLPRPRPRPRCFPRP
shrunken log2 fold change: -0.143

RRIRHRPPRLPRPRPRPRCIPRP
shrunken log2 fold change: -0.0991
